Measurements taken from paper PMC4759581, “A DNA aptamer recognising a malaria protein biomarker can function as part of a DNA origami assembly”.

B1: aptamer staple 76 (ssDNA)
DNA: TATCACCGTACTCAGGAGGTTTAGCGGGGTTTTTTTTTTTTTTTTTTTTTTTCTGGGCGGTAGAACCATAGTGACCCAGCCGTCTAC
B2: aptamer staple 77 (ssDNA)
DNA: TGCTCAGTCAGTCTCTGAATTTACCAGGAGGTTTTTTTTTTTTTTTTTTTTTCTGGGCGGTAGAACCATAGTGACCCAGCCGTCTAC
B3: aptamer staple 95 (ssDNA)
DNA: CGGAATTATTGAAAGGAATTGAGGTGAAAAATTTTTTTTTTTTTTTTTTTTTCTGGGCGGTAGAACCATAGTGACCCAGCCGTCTAC
B4: aptamer staple 97 (ssDNA)
DNA: CTAAAGCAAGATAGAACCCTTCTGAATCGTCTTTTTTTTTTTTTTTTTTTTTCTGGGCGGTAGAACCATAGTGACCCAGCCGTCTAC
B5: aptamer-staple 11 Edge (ssDNA)
DNA: CCTAATTTACGCTAACGAGCGTCTAATCAATACTGGGCGGTAGAACCATAGTGACCCAG
B6: aptamer-staple 87 Middle (ssDNA)
DNA: TCATTACCCGACAATACTGGGCGGTAGAACCATAGTGACCCAGAACAACATATTTAGGC
B7: aptamer-staple 111 Edge (ssDNA)
DNA: AAACCCTCTTTTACCAGTAATAAAAGGGATTCACCAGTCACACGTTTTCTGGGCGGTAGAACCATAGTGACCCAG
B8: aptamer-staple 211 Edge (ssDNA)
DNA: GCTAAATCTTTTCTGTAGCTCAACATGTATTGCTGACTGGGCGGTAGAACCATAGTGACCCAG
B9: aptamer-staple 121 Middle (ssDNA)
DNA: TTTCATTTGGTCAATACTGGGCGGTAGAACCATAGTGACCCAGACCTGTTTATATCGCG
B10: aptamer staple 79 (ssDNA)
DNA: TGAGGCAGGCGTCAGACTGTAGCGTAGCAAGGTTTTTTTTTTTTTTTTTTTTCTGGGCGGTAGAACCATAGTGACCCAGCCGTCTAC
B11: aptamer staple 81 (ssDNA)
DNA: CCGGAAACACACCACGGAATAAGTAAGACTCCTTTTTTTTTTTTTTTTTTTTCTGGGCGGTAGAACCATAGTGACCCAGCCGTCTAC
B12: aptamer staple 83 (ssDNA)
DNA: TTATTACGGTCAGAGGGTAATTGAATAGCAGCTTTTTTTTTTTTTTTTTTTTCTGGGCGGTAGAACCATAGTGACCCAGCCGTCTAC
B13: aptamer staple 85 (ssDNA)
DNA: CTTTACAGTTAGCGAACCTCCCGACGTAGGAATTTTTTTTTTTTTTTTTTTTCTGGGCGGTAGAACCATAGTGACCCAGCCGTCTAC
B14: aptamer staple 87 (ssDNA)
DNA: TCATTACCCGACAATAAACAACATATTTAGGCTTTTTTTTTTTTTTTTTTTTCTGGGCGGTAGAACCATAGTGACCCAGCCGTCTAC
B15: aptamer staple 89 (ssDNA)
DNA: AGAGGCATAATTTCATCTTCTGACTATAACTATTTTTTTTTTTTTTTTTTTTCTGGGCGGTAGAACCATAGTGACCCAGCCGTCTAC
B16: aptamer staple 91 (ssDNA)
DNA: TATGTAAACCTTTTTTAATGGAAAAATTACCTTTTTTTTTTTTTTTTTTTTTCTGGGCGGTAGAACCATAGTGACCCAGCCGTCTAC
B17: aptamer staple 93 (ssDNA)
DNA: GAGCAAAAACTTCTGAATAATGGAAGAAGGAGTTTTTTTTTTTTTTTTTTTTCTGGGCGGTAGAACCATAGTGACCCAGCCGTCTAC

How the values were obtained:
Details in all cases: protein: recombinant; chain copies: 4; hairpin
[1] = target: T1, Plasmodium falciparum lactate dehydrogenase (PfLDH) (Plasmodium falciparum, UniProt Q71T02 1-316); experiment: EMSA; apparent, 1:1 fit; EMSA: 25 nM strand, 0-2500 nM PfLDH (tetramer concentration in legends; text says Kd per subunit), 25 mM Tris-HCl pH 7.5, 100 mM NaCl, 20 mM imidazole, 25 C 1 h
[2] = target: T1, Plasmodium falciparum lactate …; experiment: EMSA; 4 C; EMSA: 25 nM strand, 0-2500 nM PfLDH (tetramer concentration in legends; text says Kd per subunit), 25 mM Tris-HCl pH 7.5, 100 mM NaCl, 20 mM imidazole, 25 C 1 h
[3] = target: T1, Plasmodium falciparum lactate …; experiment: EMSA; 4 C; Fig. S15 panel assignment of 606/355 unclear; EMSA: 25 nM strand, 0-2500 nM PfLDH (tetramer concentration in legends; text says Kd per subunit), 25 mM Tris-HCl pH 7.5, 100 mM NaCl, 20 mM imidazole, 25 C 1 h

| Binder | Kd [1] [nM] | other results |
| --- | --- | --- |
| B1 | 965 ± 265 |  |
| B2 | 726 ± 186 |  |
| B3 | 846 ± 161 |  |
| B4 | 760 ± 126 |  |
| B5 |  | Kd [2]: 596 ± 107 nM |
| B6 |  | Kd [2]: 1720 ± 244 nM |
| B7 |  | Kd [3]: 606 ± 164 nM |
| B8 |  | Kd [3]: 355 ± 73 nM |
| B9 |  | binding result [2]: no binding |
| B10 | 826 ± 300 |  |
| B11 | 970 ± 254 |  |
| B12 | 1090 ± 183 |  |
| B13 | 713 ± 161 |  |
| B14 | 878 ± 154 |  |
| B15 | 750 ± 95 |  |
| B16 | 984 ± 177 |  |
| B17 | 647 ± 128 |  |
